# Source: patent US20260132214A1 (JECHO LABORATORIES, published 2026)
# Experiments:
# [1] = target: T1, Glypican 3 Protein, Human, Recombinant (His Tag) (Sino Biological, Cat #10088-H08H) (human, UniProt P51654 25-559); assay: Octet QKe BLI, IgG on AHC probe, GPC3 (Sino Biological) in solution, 1:1 fit
# T1 construct: Bought recombinant protein; also called Hu-GPC3 (10088-H08H); human GPC3; not shown: His tag
# [2] = target: T1, Glypican 3 Protein, Human, Recombinant …; assay: Octet QKe BLI, ratio of KDs against P17 WT
# T1 sequence (P51654 25-559 limits assumed): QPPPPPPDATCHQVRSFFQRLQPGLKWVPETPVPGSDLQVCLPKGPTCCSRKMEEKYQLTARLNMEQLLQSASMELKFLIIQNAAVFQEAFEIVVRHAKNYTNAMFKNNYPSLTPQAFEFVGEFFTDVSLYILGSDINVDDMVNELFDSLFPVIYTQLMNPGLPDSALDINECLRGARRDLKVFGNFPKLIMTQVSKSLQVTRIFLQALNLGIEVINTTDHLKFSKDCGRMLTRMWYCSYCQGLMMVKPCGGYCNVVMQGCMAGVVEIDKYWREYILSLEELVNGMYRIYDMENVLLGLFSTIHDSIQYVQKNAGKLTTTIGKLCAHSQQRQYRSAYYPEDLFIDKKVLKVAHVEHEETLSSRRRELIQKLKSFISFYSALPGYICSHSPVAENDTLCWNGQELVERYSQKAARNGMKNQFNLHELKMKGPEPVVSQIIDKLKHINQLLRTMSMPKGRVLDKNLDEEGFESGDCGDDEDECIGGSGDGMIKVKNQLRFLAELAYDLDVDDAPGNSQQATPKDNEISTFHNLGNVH
Binder,Kd [1],koff [1],kon [1],fold lower KD than P17 WT [2]
"P17-8E12 IgG (antibody, V domains shown, IgG) VH: not shown VL: QSVLTQPPSVSGAPGQRVTISCTGSSSGYDVHWYQQLPGRAPKLLIYGSNNRPSGVPDRFSGSNSGTSASLAITGLQAEDEADYYCQSYDSSLNAIFGGGTKLTVL",< 1 pM,1.79e-07 s⁻¹,223000 M⁻¹ s⁻¹,6000 fold
"P17-11F4 IgG (antibody, V domains shown, IgG) VH: EVQLVESGGGLVQPGGSLRLSCAASGFTFKDYAMSWVRQAPGKGLEWVSALSGSGGATYYADSVKGRFTISRDNSKNTLYLQMNSLRAEDTAVYYCAKEMDFRYGWMHYYYGMDVWGQGTTVTVSS VL: QSVLTQPPSVSGAPGQRVTISCTGSSSGYDVHWYQQLPGRAPKLLIYGSNNRPSGVPDRFSGSNSGTSASLAITGLQAEDEADYYCQSYDSSLNAIFGGGTKLTVL",< 1 pM,1.83e-07 s⁻¹,188000 M⁻¹ s⁻¹,6000 fold
